{"source": "the supplement of paper PMC9112550", "about": "“Optimization of the antimicrobial peptide Bac7 by deep mutational scanning” (BMC Biology, 2022);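 note: peptides expressed intracellularly from a pBAD plasmid library in pooled LB shake-flask culture, induced with 0.3% L-arabinose, DNA abundance read by NGS, three biological replicates, DESeq2 with apeglm shrinkage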"}
{"tested_on": "Escherichia coli TOP10", "assay": "shrunken log2 fold change of peptide-encoding DNA abundance (4.5 h post-induction vs induction); higher = less antimicrobial activity (less host growth inhibition)", "conditions": "time post-induction: 4.5 h; library: site-saturation at positions 5, 18, 19, 20"}
{"sequence": "RRIRPRPPRLPRPRPRPSVDPRP", "shrunken log2 fold change": -0.187}
{"sequence": "RRIRNRPPRLPRPRPRPLMEPRP", "shrunken log2 fold change": -0.0667}
{"sequence": "RRIRQRPPRLPRPRPRPDSFPRP", "shrunken log2 fold change": 0.0109}
{"sequence": "RRIRFRPPRLPRPRPRPIDTPRP", "shrunken log2 fold change": -0.127}
{"sequence": "RRIRCRPPRLPRPRPRPNRHPRP", "shrunken log2 fold change": -0.388}
{"sequence": "RRIRKRPPRLPRPRPRPCVAPRP", "shrunken log2 fold change": 0.223}
{"sequence": "RRIRLRPPRLPRPRPRPTGSPRP", "shrunken log2 fold change": -0.0138}
{"sequence": "RRIRPRPPRLPRPRPRPPQFPRP", "shrunken log2 fold change": 0.297}
{"sequence": "RRIRWRPPRLPRPRPRPVQYPRP", "shrunken log2 fold change": -0.108}
{"sequence": "RRIRPRPPRLPRPRPRPYIQPRP", "shrunken log2 fold change": -0.375}
{"sequence": "RRIRARPPRLPRPRPRPRYWPRP", "shrunken log2 fold change": 0.213}
{"sequence": "RRIRRRPPRLPRPRPRPRLSPRP", "shrunken log2 fold change": -0.0979}
{"sequence": "RRIRCRPPRLPRPRPRPHIIPRP", "shrunken log2 fold change": -0.11}
{"sequence": "RRIRSRPPRLPRPRPRPVMCPRP", "shrunken log2 fold change": -0.173}
{"sequence": "RRIRTRPPRLPRPRPRPSGDPRP", "shrunken log2 fold change": -0.221}
{"sequence": "RRIRRRPPRLPRPRPRPWYDPRP", "shrunken log2 fold change": -0.25}
{"sequence": "RRIRSRPPRLPRPRPRPIDHPRP", "shrunken log2 fold change": -0.273}
{"sequence": "RRIRCRPPRLPRPRPRPYDLPRP", "shrunken log2 fold change": -0.325}
{"sequence": "RRIRKRPPRLPRPRPRPAHGPRP", "shrunken log2 fold change": 0.502}
{"sequence": "RRIRHRPPRLPRPRPRPAVLPRP", "shrunken log2 fold change": 0.0684}
{"sequence": "RRIRARPPRLPRPRPRPSEPPRP", "shrunken log2 fold change": 0.11}
{"sequence": "RRIRQRPPRLPRPRPRPHINPRP", "shrunken log2 fold change": -0.921}
{"sequence": "RRIRKRPPRLPRPRPRPPVKPRP", "shrunken log2 fold change": 0.181}
{"sequence": "RRIRWRPPRLPRPRPRPNIWPRP", "shrunken log2 fold change": -0.153}
{"sequence": "RRIRYRPPRLPRPRPRPPYKPRP", "shrunken log2 fold change": -0.23}
{"sequence": "RRIRERPPRLPRPRPRPARAPRP", "shrunken log2 fold change": 0.522}
{"sequence": "RRIRMRPPRLPRPRPRPHAFPRP", "shrunken log2 fold change": 0.179}
{"sequence": "RRIRVRPPRLPRPRPRPVFYPRP", "shrunken log2 fold change": -0.178}
{"sequence": "RRIRRRPPRLPRPRPRPMRAPRP", "shrunken log2 fold change": 0.905}
{"sequence": "RRIRDRPPRLPRPRPRPQNVPRP", "shrunken log2 fold change": -0.01}
{"sequence": "RRIRSRPPRLPRPRPRPLPMPRP", "shrunken log2 fold change": 0.256}
{"sequence": "RRIRTRPPRLPRPRPRPLRTPRP", "shrunken log2 fold change": 0.26}
{"sequence": "RRIRIRPPRLPRPRPRPIDTPRP", "shrunken log2 fold change": -0.00177}
{"sequence": "RRIRPRPPRLPRPRPRPELKPRP", "shrunken log2 fold change": 0.0877}
{"sequence": "RRIRMRPPRLPRPRPRPAIDPRP", "shrunken log2 fold change": 0.718}
{"sequence": "RRIRGRPPRLPRPRPRPPASPRP", "shrunken log2 fold change": 1.07}
{"sequence": "RRIRLRPPRLPRPRPRPKDLPRP", "shrunken log2 fold change": -0.242}
{"sequence": "RRIRYRPPRLPRPRPRPFSDPRP", "shrunken log2 fold change": -0.03}
{"sequence": "RRIRSRPPRLPRPRPRPRVPPRP", "shrunken log2 fold change": 0.692}
{"sequence": "RRIRFRPPRLPRPRPRPHDSPRP", "shrunken log2 fold change": 0.0531}
{"sequence": "RRIRGRPPRLPRPRPRPAWYPRP", "shrunken log2 fold change": 0.405}
{"sequence": "RRIRFRPPRLPRPRPRPKCIPRP", "shrunken log2 fold change": -0.338}
{"sequence": "RRIRQRPPRLPRPRPRPIPCPRP", "shrunken log2 fold change": -0.244}
{"sequence": "RRIRPRPPRLPRPRPRPVGFPRP", "shrunken log2 fold change": 0.37}
{"sequence": "RRIRFRPPRLPRPRPRPKNVPRP", "shrunken log2 fold change": 0.04}
{"sequence": "RRIRSRPPRLPRPRPRPYNIPRP", "shrunken log2 fold change": -0.579}
{"sequence": "RRIRVRPPRLPRPRPRPFYDPRP", "shrunken log2 fold change": -0.0104}
{"sequence": "RRIRERPPRLPRPRPRPSYHPRP", "shrunken log2 fold change": -0.66}
{"sequence": "RRIRRRPPRLPRPRPRPIMQPRP", "shrunken log2 fold change": -0.0408}
{"sequence": "RRIRFRPPRLPRPRPRPYKYPRP", "shrunken log2 fold change": -0.907}
{"sequence": "RRIRYRPPRLPRPRPRPTTRPRP", "shrunken log2 fold change": -0.193}
{"sequence": "RRIRHRPPRLPRPRPRPNNRPRP", "shrunken log2 fold change": -0.329}
{"sequence": "RRIRGRPPRLPRPRPRPTPRPRP", "shrunken log2 fold change": 1.16}
{"sequence": "RRIRGRPPRLPRPRPRPPCIPRP", "shrunken log2 fold change": 0.117}
{"sequence": "RRIRKRPPRLPRPRPRPKSMPRP", "shrunken log2 fold change": 0.375}
{"sequence": "RRIRRRPPRLPRPRPRPYFAPRP", "shrunken log2 fold change": 0.487}
{"sequence": "RRIRGRPPRLPRPRPRPDMDPRP", "shrunken log2 fold change": 0.00342}
{"sequence": "RRIRVRPPRLPRPRPRPNIHPRP", "shrunken log2 fold change": -0.556}
{"sequence": "RRIRVRPPRLPRPRPRPKMHPRP", "shrunken log2 fold change": -0.198}
{"sequence": "RRIRMRPPRLPRPRPRPMCDPRP", "shrunken log2 fold change": 0.709}
{"sequence": "RRIRTRPPRLPRPRPRPVAGPRP", "shrunken log2 fold change": -0.0116}
{"sequence": "RRIRTRPPRLPRPRPRPTWPPRP", "shrunken log2 fold change": 0.439}
{"sequence": "RRIRVRPPRLPRPRPRPHVCPRP", "shrunken log2 fold change": -0.0775}
{"sequence": "RRIRIRPPRLPRPRPRPFRCPRP", "shrunken log2 fold change": -0.192}
{"sequence": "RRIRFRPPRLPRPRPRPWDNPRP", "shrunken log2 fold change": -0.298}
{"sequence": "RRIRQRPPRLPRPRPRPEVIPRP", "shrunken log2 fold change": -0.00663}
{"sequence": "RRIRMRPPRLPRPRPRPLGTPRP", "shrunken log2 fold change": 1.31}
{"sequence": "RRIRYRPPRLPRPRPRPGDVPRP", "shrunken log2 fold change": -0.484}
{"sequence": "RRIRNRPPRLPRPRPRPLVNPRP", "shrunken log2 fold change": -0.289}
{"sequence": "RRIRCRPPRLPRPRPRPFIWPRP", "shrunken log2 fold change": -0.717}
{"sequence": "RRIRFRPPRLPRPRPRPARRPRP", "shrunken log2 fold change": 0.435}
{"sequence": "RRIRPRPPRLPRPRPRPKYAPRP", "shrunken log2 fold change": -0.102}
{"sequence": "RRIRARPPRLPRPRPRPPVWPRP", "shrunken log2 fold change": 0.685}
{"sequence": "RRIRARPPRLPRPRPRPGGHPRP", "shrunken log2 fold change": 0.115}
{"sequence": "RRIRSRPPRLPRPRPRPQPGPRP", "shrunken log2 fold change": 0.287}
